From article PMC4506714 come the findings set out here.

One series concerns the target RPA (RPA70-RPA32-RPA14) (UniProt P27694;P15927;P35244 1-616;1-270;1-121). As to the kind of experiment: EMSA. In general terms: In EMSA bound probe runs differently from free probe, usually more slowly.
A further series deals with SSB (E. coli, UniProt P0AGE0 1-178). As to the kind of experiment: EMSA.
Sequence of SSB (P0AGE0 whole entry): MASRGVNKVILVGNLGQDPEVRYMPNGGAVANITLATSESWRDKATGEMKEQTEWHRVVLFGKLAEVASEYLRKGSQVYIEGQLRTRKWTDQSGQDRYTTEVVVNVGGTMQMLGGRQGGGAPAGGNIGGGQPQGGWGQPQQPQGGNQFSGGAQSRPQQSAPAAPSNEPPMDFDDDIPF

Sequence of RPA (RPA70-RPA32-RPA14) (P27694 whole entry, chain 1 of 3): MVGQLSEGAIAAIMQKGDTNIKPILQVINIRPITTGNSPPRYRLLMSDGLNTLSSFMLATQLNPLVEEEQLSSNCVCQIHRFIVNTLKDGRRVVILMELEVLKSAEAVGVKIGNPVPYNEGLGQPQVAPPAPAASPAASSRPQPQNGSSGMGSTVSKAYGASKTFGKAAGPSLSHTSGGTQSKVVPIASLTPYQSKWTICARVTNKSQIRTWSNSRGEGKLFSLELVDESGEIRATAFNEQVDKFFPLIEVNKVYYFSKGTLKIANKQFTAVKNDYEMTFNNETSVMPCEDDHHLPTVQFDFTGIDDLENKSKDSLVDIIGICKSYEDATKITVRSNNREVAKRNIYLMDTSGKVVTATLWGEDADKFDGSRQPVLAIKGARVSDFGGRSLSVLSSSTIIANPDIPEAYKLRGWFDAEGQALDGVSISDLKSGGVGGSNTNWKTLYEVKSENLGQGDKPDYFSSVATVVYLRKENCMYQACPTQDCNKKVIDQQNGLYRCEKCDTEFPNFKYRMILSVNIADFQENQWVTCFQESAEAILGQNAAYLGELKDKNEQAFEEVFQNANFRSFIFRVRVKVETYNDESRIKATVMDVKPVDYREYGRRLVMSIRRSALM
Sequence of RPA (RPA70-RPA32-RPA14) (P15927 whole entry, chain 2 of 3): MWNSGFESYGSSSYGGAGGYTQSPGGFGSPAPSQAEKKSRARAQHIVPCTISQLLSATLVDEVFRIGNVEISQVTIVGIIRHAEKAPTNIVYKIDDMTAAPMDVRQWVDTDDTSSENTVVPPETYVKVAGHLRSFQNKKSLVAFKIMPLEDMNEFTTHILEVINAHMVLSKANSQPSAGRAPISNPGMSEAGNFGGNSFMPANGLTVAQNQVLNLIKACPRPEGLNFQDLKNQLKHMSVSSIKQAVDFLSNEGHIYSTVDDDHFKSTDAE
Sequence of RPA (RPA70-RPA32-RPA14) (P35244 whole entry, chain 3 of 3): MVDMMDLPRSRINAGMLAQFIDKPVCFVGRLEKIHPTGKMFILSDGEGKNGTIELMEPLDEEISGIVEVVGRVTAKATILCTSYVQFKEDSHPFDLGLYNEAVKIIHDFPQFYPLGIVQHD

B1: dT30 (ssDNA)
DNA: TTTTTTTTTTTTTTTTTTTTTTTTTTTTTT
Consider B1, for which the binding result with RPA (RPA70-RPA32-RPA14) and with SSB was “binds” throughout.
